Consider 7 molecules from publication PMC8421216 (Nucleic Acids Research, 2020).

Data set [1] deals with T1, Brat-NHL (Drosophila melanogaster, UniProt Q8MQJ9 756-1037).
T1 sequence: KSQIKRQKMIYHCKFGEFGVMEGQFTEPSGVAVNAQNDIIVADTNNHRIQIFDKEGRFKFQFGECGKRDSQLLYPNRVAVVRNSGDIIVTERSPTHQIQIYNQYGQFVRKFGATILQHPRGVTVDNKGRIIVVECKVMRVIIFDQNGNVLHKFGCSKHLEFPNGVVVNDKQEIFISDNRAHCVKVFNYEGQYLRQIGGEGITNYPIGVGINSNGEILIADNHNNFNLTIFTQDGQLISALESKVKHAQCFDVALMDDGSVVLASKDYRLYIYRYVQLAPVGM
Kind of data set: ITC. Background: Isothermal titration calorimetry measures the heat released or taken up as one component is titrated into another.

In data set [2] the target is T1, Brat-NHL. Kind of data set: ITC. The source holds these as a separate data set.
The target of data set [3] is T1, Brat-NHL. Kind of data set: ITC. The source holds these as a separate data set.
For data set [4], the target named is T2, Pum-HD;Brat-NHL;Nanos-ZnF (Drosophila melanogaster;Drosophila …, UniProt P25822;Q8MQJ9;P25724 1093-1426;756-1037;301-392, ||).
T2 sequence 1: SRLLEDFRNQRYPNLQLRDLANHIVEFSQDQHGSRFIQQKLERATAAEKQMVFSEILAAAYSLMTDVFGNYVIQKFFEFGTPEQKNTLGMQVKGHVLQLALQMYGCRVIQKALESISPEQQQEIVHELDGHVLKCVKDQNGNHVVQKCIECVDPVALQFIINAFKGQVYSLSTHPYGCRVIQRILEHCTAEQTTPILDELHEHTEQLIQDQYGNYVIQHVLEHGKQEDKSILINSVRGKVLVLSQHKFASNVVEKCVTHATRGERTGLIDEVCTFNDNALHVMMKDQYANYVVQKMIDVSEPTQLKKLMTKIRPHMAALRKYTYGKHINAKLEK
T2 sequence 2: T1 sequence
T2 sequence 3: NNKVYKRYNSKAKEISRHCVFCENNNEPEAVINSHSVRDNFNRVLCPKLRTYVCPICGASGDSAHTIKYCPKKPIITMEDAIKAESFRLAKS
In words: SEC-MALLS, NMR, SAXS/SANS.

Data set [5] addresses T1, Brat-NHL. Kind of data set: ITC. This is another data set of the same source.
Data set [6] deals with T1, Brat-NHL. In words: ITC. The source holds these as a separate data set.
The target in data set [7] is T1, Brat-NHL. Kind of data set: ITC. This is another data set of the same source.
Another data set addresses T3, Nanos-ZnF (Drosophila melanogaster, UniProt P25724 301-392).
T3 sequence: T2 sequence 3
In words: ITC.

Data set [8] has as its target T4, Pum-HD (Drosophila melanogaster, UniProt P25822 1093-1426).
T4 sequence: T2 sequence 1
In words: ITC.

Data set [9] addresses T4, Pum-HD. In words: ITC. This is another data set of the same source.
The target of data set [10] is T5, HD domain of Pumilio (Pum-HD) (Drosophila, UniProt P25822 1093-1426).
T5 sequence (looked up): T2 sequence 1
Kind of data set: SEC + SEC-MALS. On the technique in general: SEC sorts molecules by how far they enter the pores of the column.

The target of data set [11] is T4, Pum-HD. In words: ITC. This is another data set of the same source.
Data set [12] deals with T4, Pum-HD. Kind of data set: ITC. The source holds these as a separate data set.
The target in data set [13] is T4, Pum-HD. In words: ITC. The source holds these as a separate data set.
Data set [14] has as its target T4, Pum-HD. In words: ITC. This is another data set of the same source.
The target of data set [15] is T4, Pum-HD. In words: ITC. This is another data set of the same source.
The target in data set [16] is T4, Pum-HD. Kind of data set: ITC. The source holds these as a separate data set.

Where two headings read alike, the source gives them in different places.

Consider UUGUUGUCGAAAAUUGUACAUAA (structured_RNA) [NRE2 (23-mer)], for which the dissociation constant Kd – broadly, the concentration at which binding is half-saturated – with Brat-NHL [1] was determined as 0.37 ± 0.1 µM; with Brat-NHL [2] it was 0.32 ± 0.1 µM; with Brat-NHL [3], 1.2 ± 0.2 µM; with Brat-NHL [5], 0.9 µM; in the data set with Brat-NHL [6] it was 0.2 µM; with Brat-NHL [7], 1.4 µM. The dissociation constant Kd amounted to 0.002 µM with Pum-HD [8] and 0.015 µM in the data set with Pum-HD [9]. The binding result in [4] is on record as “binds”; with Nanos-ZnF, “no binding”.

B1: ZnF domain of Nanos (Nanos-ZnF) (domain or fragment, Drosophila, UniProt P25724 301-392, looked up)
chain: T2 sequence 3
For the molecule B1, the stoichiometry N (as a rule, a count of units in the complex or per binding partner) in data set [10] stood at 1.
Regarding UUGUUGUC (ssRNA) [BoxAext], the binding result with Pum-HD [11] is reported as “no binding”.
Turning to UUGUUGUCGAAAAU (ssRNA) [NRE2 minus BoxB], the Kd with Pum-HD [12] turned out to be 1.2 ± 0.08 µM; in the data set with Pum-HD [13], 1 ± 0.02 µM.
Take UGUACAUA (ssRNA) [BoxB]: the Kd with Pum-HD [12] is 0.002 ± 0.002 µM; with Pum-HD [13], 0.0066 ± 0.004 µM; in the data set with Pum-HD [14], 0.0081 ± 0.0017 µM.
Turning to UUGUUG (ssRNA) [BoxA], the dissociation constant (Kd) came to 1.1 ± 0.3 µM with Brat-NHL [1], 1 ± 0.3 µM with Brat-NHL [2] and 0.8 ± 0.2 µM with Brat-NHL [3]. Besides, the binding result with Pum-HD [11] is on record as “no binding”.
In the case of UCGAAAAUUGUACAUAA (ssRNA) [NRE2 minus BoxA], the values for the Kd with Pum-HD [15] and with Pum-HD [16] were 0.01 ± 0.0003 µM and 0.011 ± 0.0006 µM, respectively.
